According to IntAct's records for PubMed 12845325:

B1: Integrin alpha-L (Homo sapiens), P20701 (parent)
chain: MKDSCITVMAMALLSGFFFFAPASSYNLDVRGARSFSPPRAGRHFGYRVLQVGNGVIVGAPGEGNSTGSLYQCQSGTGHCLPVTLRGSNYTSKYLGMTLATDPTDGSILACDPGLSRTCDQNTYLSGLCYLFRQNLQGPMLQGRPGFQECIKGNVDLVFLFDGSMSLQPDEFQKILDFMKDVMKKLSNTSYQFAAVQFSTSYKTEFDFSDYVKRKDPDALLKHVKHMLLLTNTFGAINYVATEVFREELGARPDATKVLIIITDGEATDSGNIDAAKDIIRYIIGIGKHFQTKESQETLHKFASKPASEFVKILDTFEKLKDLFTELQKKIYVIEGTSKQDLTSFNMELSSSGISADLSRGHAVVGAVGAKDWAGGFLDLKADLQDDTFIGNEPLTPEVRAGYLGYTVTWLPSRQKTSLLASGAPRYQHMGRVLLFQEPQGGGHWSQVQTIHGTQIGSYFGGELCGVDVDQDGETELLLIGAPLFYGEQRGGRVFIYQRRQLGFEEVSELQGDPGYPLGRFGEAITALTDINGDGLVDVAVGAPLEEQGAVYIFNGRHGGLSPQPSQRIEGTQVLSGIQWFGRSIHGVKDLEGDGLADVAVGAESQMIVLSSRPVVDMVTLMSFSPAEIPVHEVECSYSTSNKMKEGVNITICFQIKSLIPQFQGRLVANLTYTLQLDGHRTRRRGLFPGGRHELRRNIAVTTSMSCTDFSFHFPVCVQDLISPINVSLNFSLWEEEGTPRDQRAQGKDIPPILRPSLHSETWEIPFEKNCGEDKKCEANLRVSFSPARSRALRLTAFASLSVELSLSNLEEDAYWVQLDLHFPPGLSFRKVEMLKPHSQIPVSCEELPEESRLLSRALSCNVSSPIFKAGHSVALQMMFNTLVNSSWGDSVELHANVTCNNEDSDLLEDNSATTIIPILYPINILIQDQEDSTLYVSFTPKGPKIHQVKHMYQVRIQPSIHDHNIPTLEAVVGVPQPPSEGPITHQWSVQMEPPVPCHYEDLERLPDAAEPCLPGALFRCPVVFRQEILVQVIGTLELVGEIEASSMFSLCSSLSISFNSSKHFHLYGSNASLAQVVMKVDVVYEKQMLYLYVLSGIGGLLLLLLIFIVLYKVGFFKRNLKEKMEAGRGVPNGIPAEDSEQLASGQEAGDPGCLKPLHEKDSESGGGKD
partner: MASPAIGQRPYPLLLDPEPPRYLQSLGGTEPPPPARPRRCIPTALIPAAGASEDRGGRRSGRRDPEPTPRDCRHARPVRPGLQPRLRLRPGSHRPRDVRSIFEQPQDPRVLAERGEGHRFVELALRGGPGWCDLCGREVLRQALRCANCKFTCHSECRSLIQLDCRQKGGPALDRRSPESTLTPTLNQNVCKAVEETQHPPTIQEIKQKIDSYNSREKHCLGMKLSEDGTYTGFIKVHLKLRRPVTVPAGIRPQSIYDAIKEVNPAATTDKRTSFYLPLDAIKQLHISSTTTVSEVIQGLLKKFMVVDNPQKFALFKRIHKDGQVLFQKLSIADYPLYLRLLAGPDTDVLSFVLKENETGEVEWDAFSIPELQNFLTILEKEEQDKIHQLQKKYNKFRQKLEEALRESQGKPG

Variants of: B1
Settings: with rasf5_mouse Rassf5, Q5EBH1

effect of a mutation on the interaction	Variant
disrupting interaction	K1122A;K1124A
